Patent US20180344832A1

Target: PDL1 on the surface of TC-1 cells (murine (TC-1 murine tumor cell line)) (UniProt Q9EP73)
Test: flow cytometry on TC-1 cells, isotype background control

UniProt Q9EP73, sequence (Q9EP73 19-290): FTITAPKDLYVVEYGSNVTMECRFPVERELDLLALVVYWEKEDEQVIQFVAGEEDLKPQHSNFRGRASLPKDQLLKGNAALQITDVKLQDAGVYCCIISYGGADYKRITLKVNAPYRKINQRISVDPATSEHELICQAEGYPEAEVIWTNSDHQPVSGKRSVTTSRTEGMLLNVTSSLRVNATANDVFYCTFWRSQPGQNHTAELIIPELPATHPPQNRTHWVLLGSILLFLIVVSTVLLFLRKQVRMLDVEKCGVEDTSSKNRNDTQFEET

## PE-conjugated isotype control antibody
  median fluorescent intensity (MFI): 184 MFI
